Data published in patent publication US20030099631A1.

How the values were obtained:
[1] = tested on: T1, DNP-Pro-Cha-Abu-Cys(Me)-His-Ala-Lys(N-Me-Abz)-NH2
T1 sequence: PXXCHAK

Molecule | intensity of fluorescence (excitation 365 nm, emission 460 nm) after cleavage of the substrate [1] | casein hydrolyzing activity (PER assay) (casein)
recombinant human liver-derived metalloprotease expressed in Escherichia coli JM109/pNHMB | a fluorescence intensity of 230 | 
human liver-derived metalloprotease transiently expressed in COS-7 cells transfected with pTB1921 (culture supernatant, treated with aminophenyl-mercuric … (protein) YLLLGRWRKKHLTFRILNLPSTLPPHTARAALRQAFQDWSNVAPLTFQEVQAGAADIRLSFHGRQSSYCSNTFDGPGRVLAHADIPELGSVHFDEDEFWTEGTYRGVNLRIIAAHEVGHALGLGHSRYSQALMAPVYEGYRPHFKLHPDDVAGIQALYGKKSPVIRDEEEEETELPTVPPVPTEPSPMPDPCSSELDAMMLGPRGKTYAFKGDYVWTVSDSGPGPLFRVSALWEGLPGNLDAAVYSPRTQWIHFFKGDKVWRYINFKMSPGFPKKLNRVEPNLDAALYWPLNQKVFLFKGSGYWQWDELARTDFSSYPKPIKGLFTGVPNQPSAAMSWQDGRVYFFKGKVYWRLNQQLRVEKGYPRNISHNWMHCRPRTIDTTPSGGNTTPSGTGITLDTTLSATETTFEY |  | casein hydrolyzing activity which was not found in the mock culture supernatant was detected in the culture supernatant of COS-7 cells transfected with pTB1921
